Positions count from the first letter of the chain named. Read-outs that look alike come from different tables or passages of the source.
Key:
[1] = target: T1, …; test: Pepscan ELISA on a synthesized peptide array (peroxidase conjugate, ABTS, CCD read-out, scale 0 to 3000) [upper panel]
T1 construct: x-axis label of the 3rd bar, upper panel
Protocol: (§1) The binding of antibody to each of the synthesized 20 mer peptides was tested in a Pepscan based ELISA. The linear peptide array covering the entire coding sequence of alpha-synuclein, as well as all peptides with oxidized methionines or nitrosylated tyrosines, were incubated with primary antibody solution (overnight at 4° C.). After washing, the peptide arrays were incubated with a 1/1000 dilution of an antibody peroxidase conjugate (SBA,cat.nr.2010-05) for one hour at 25° C. After washing, the peroxidase substrate 2,2′-azino-di-3-ethylbenzthiazoline sulfonate (ABTS) and 2 μl/ml of 3 percent H₂O₂ were added. After one hour, the color development was measured. The color development was quantified with a charge coupled device (CCD)—camera and an image processing system. […] The results were quantified and stored into the Peplab database. Occasionally a well contains an air-bubble resulting in a false-positive value, the cards are manually inspected and any values caused by an air-bubble are scored as 0.

[2] = target: T2, …; test: as above
T2 construct: x-axis label of the 2nd bar, upper panel
Protocol: as §1

[3] = target: T3, …; test: as above
T3 construct: x-axis label of the 4th bar, upper panel; also called alpha-synuclein 20-mer 121-140
Protocol: as §1

[4] = target: T4, alpha-synuclein (human, UniProt P37840 1-140); test: SPR (Biacore 3000), IgG captured by anti-human IgG on CM5 chip, synuclein as analyte
[5] = target: T4, alpha-synuclein; test: as above; remark: listed apart in the source
[6] = target: T4, alpha-synuclein; test: SPR (Biacore 3000), synuclein ligand format

B1: mouse 2E6 (antibody, V domains shown)
VH: QVQLQQPGAELVKPGASVKLSCTASGYTFTSYWMHWMKQRPGRGLEWIGRIDPNSGTTKYNVNFKTKATLTVDKPSSTAYMHLSSLTSEDSAVYYCARLGHYGNLYAMDYWGQGTSVT
VL: QIVLTQSPAIMSASPGEKVTMTCSASSSVSYMHWYQQKSGTSPKRWIYDTSKLASGVPTRFSGSGSGTSYSLTISSMDTEDAATYYCQQWSSNPPTFGAGTKLELK
notes: also called m2E6
[1]
  binding result: binds
[2]
  binding result: binds
[3]
  binding result: binds

B2: chimeric 2E6 (antibody, V domains shown)
VH: B1 VH
VL: B1 VL
notes: also called ch2E6; Ch2E6
[4]
  KD improvement: 1 fold (Ch2E6 = 1)
[5]
  KD improvement: 1 fold (Ch2E6 = 1)
[6]
  KD improvement: 1 fold (Ch2E6 = 1)

B3: 2E6-HLD-1 (antibody, V domains shown)
VH: QVQLVQSGAEVKKPGASVKVSCKASGYTFTSYWMHWMRQAPGQGLEWIGRIDPNSGTTKYNVNFKTRATLTVDKSTSTAYMELSSLRSEDTAVYYCARLGHYGNLYAMDYWGQGTLVT
VL: EIVLTQSPATLSLSPGERATLSCSASSSVSYMHWYQQKPGQAPRRWIYDTSKLASGVPARFSGSGSGTDYTLTISSLEPEDFAVYYCQQWSSNPPTFGQGTKLEIKR
notes: Humanized 2E6; also called h2E6-HLD-1; H2E6-HLD-1
[4]
  KD improvement: 2.5 fold (Ch2E6 = 1)
[5]
  KD improvement: 2.5 fold (Ch2E6 = 1)
[6]
  KD improvement: 2 fold (Ch2E6 = 1)

B4: 8D9 (antibody, V domains shown)
VH: B3 VH with M108K
VL: EIVLTQSPATLSLSPGERATLSCSASSSVSYIHWYQQKPGQAPRRWIYDTSKLASGVPARFSGSGSGTDYTLTISSLEPEDFAVYYCQQWSSNPPTFGQGTKLEIK
[5]
  KD improvement: 8.7 fold (Ch2E6 = 1)

B5: 7A10 (antibody, V domains shown)
VH: B3 VH with M108K
VL: B4 VL
notes: also called 2E6_7A10; 2E6-HLD1-7A10
[5]
  KD improvement: 10.3 fold (Ch2E6 = 1)
  Ka: 1.81e+08 M⁻¹
  Kd: 5.52 nM
  koff: 0.000285 s⁻¹
  kon: 51700 M⁻¹ s⁻¹

B6: 2E6-HLD-2 (antibody, V domains shown)
VH: B3 VH with M37V
VL: B3 VL
notes: Humanized 2E6; also called h2E6-HLD-2; H2E6-HLD-2
[6]
  KD improvement: 1 fold (Ch2E6 = 1)

B7: 7C4 (antibody, V domains shown)
VH: B3 VH with S31R, L45P
VL: B4 VL with Y31F, I32M
[5]
  KD improvement: 7 fold (Ch2E6 = 1)

B8: 9C12 (antibody, V domains shown)
VH: B3 VH with F64I
VL: B4 VL with I32M, W46L
[5]
  KD improvement: 10 fold (Ch2E6 = 1)

B9: 2E6-HLD-3 (antibody, V domains shown)
VH: B3 VH with A68V
VL: B3 VL
notes: Humanized 2E6; also called h2E6-HLD-3; H2E6-HLD-3
[6]
  KD improvement: 1 fold (Ch2E6 = 1)
  Kd: 5.32 nM

B10: HDL1-3 (antibody, V domains shown)
VH: B3 VH with F64I
VL: B4 VL
notes: also called combination 3: 7A10 light chain+9C12 heavy chain
[4]
  KD improvement: 45 fold (Ch2E6 = 1)
  Ka: 7.94e+08 M⁻¹
  Kd: 1.26 nM
  koff: 0.000126 s⁻¹
  kon: 99900 M⁻¹ s⁻¹
